Earlier results in patent US20130251731A1, “Tau Acetylation in the Pathogenesis of Alzheimers Disease and Other Related Tauopathies” (THE TRUSTEES OF THE UNIVERSITY OF PENNSYLVANIA, priority 2012, published 2013).
Read-outs that look alike come from different tables or passages of the source.

Tested on: histones and microtubules

B1: αTAT-1: cytoplasmic α-tubulin acetyltransferase (protein, UniProt Q5SQI0 1-421, looked up)
Alpha-tubulin …: MEFPFDVDALFPERITVLDQHLRPPARRPGTTTPARVDLQQQIMTIIDELGKASAKAQNLSAPITSASRMQSNRHVVYILKDSSARPAGKGAIIGFIKVGYKKLFVLDDREAHNEVEPLCILDFYIHESVQRHGHGRELFQYMLQKERVEPHQLAIDRPSQKLLKFLNKHYNLETTVPQVNNFVIFEGFFAHQHRPPAPSLRATRHSRAAAVDPTPAAPARKLPPKRAEGDIKPYSSSDREFLKVAVEPPWPLNRAPRRATPPAHPPPRSSSLGNSPERGPLRPFVPEQELLRSLRLCPPHPTARLLLAADPGGSPAQRRRTRGTPPGLVAQSCCYSRHGGVNSSSPNTGNQDSKQGEQETKNRSASEEQALSQDGSGEKPMHTAPPQAPAPPAQSWTVGGDILNARFIRNLQERRSTRPW
Kcat (Shida et al., 2010): 0.037 min⁻¹ | Kcat (substrate as listed (H4-21, H3p19, H3, microtubules)): 0.037 min⁻¹ | Km (substrate as listed (H4-21, H3p19, H3, microtubules), read-out: Km [protein]): 1600 nM
